This note sets out measurements from the supplement of paper PMC12042874.

± gives the uncertainty stated by the source.

The data set in a line: amyloid nucleation score (Sup35N fusion, yeast selection) (log enrichment); library NNK1; higher = more nucleation; inactive = no reads after selection. The essentials:
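The nucleation score is the log enrichment of output over input reads, calculated with DiMSum and centred on the mode score of non-aggregating sequences. Sequences with under 100 input reads were excluded. Reads came from Illumina sequencing of plasmid inserts from psi-negative yeast expressing Sup35N fused to peptides of 20 random codons, induced 24 hours with 100 μM copper sulfate and grown 7 days at 30°C without adenine and uracil.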
For the substance CDWNLSNGGYGDHARCSGSA, the amyloid nucleation score is 5.13 ± 0.069.

For the substance CDYAVGHNVDFYYLTSNPSG, the amyloid nucleation score was -0.301 ± 0.53.

In turn, CDYVKRLDNLLGYPLWWGRW had an amyloid nucleation score of 0.22 ± 0.34.

With CEGCDMGWLRSTNRQLMAYL, the amyloid nucleation score entry is “inactive”.

In turn, CELGTIDHSEKMLMVNWCAG yielded an amyloid nucleation score of 0.967 ± 0.34.

CESCAACMRHYRWLGFQSYI had an amyloid nucleation score of -1.5 ± 2.4.

As to CFGCF, the amyloid nucleation score amounted to 2.23 ± 0.17.

Consider CFGKSSVWHRYRFYIGNRAI, for which the amyloid nucleation score was -0.613 ± 0.75.

In turn, CFIDQYVVTNCSLLTYFM came in with an amyloid nucleation score of 0.145 ± 0.88.

Substance CFIFFPSKIHPLICTKTRAK came in with an amyloid nucleation score of 0.446 ± 0.34.

Substance CFRELPYSLYNC gave an amyloid nucleation score of -0.666 ± 0.42.

CFSLWY had an amyloid nucleation score of 0.089 ± 0.29.

The substance CGIVFCSSFMDIFGPFDQTH yielded an amyloid nucleation score of 8.373 ± 0.056.

Regarding CGKESRVRVKYCVFGIKKWQ, the amyloid nucleation score is -0.518 ± 0.53.

The substance CGLLWSCSKLH gave an amyloid nucleation score of 1.56 ± 0.42.

For CGSRLGEMRAVTGPHLTPMR, the amyloid nucleation score is -0.233 ± 1.1.

The substance CGTIKLSPFWWSVEDHACWM gave an amyloid nucleation score of 0.828 ± 0.57.

The substance CHFSYSI registered an amyloid nucleation score of 0.558 ± 1.1.

On to CHGCIGTNSEGLCTLYEDYT, for which the amyloid nucleation score was -0.594 ± 0.26.

CHIWPDVLNVCAILGDLRKR returned an amyloid nucleation score of 1.18 ± 0.16.

Regarding CHWLNVYSCFSYVVTYDWSN, the amyloid nucleation score stood at 6.044 ± 0.056.

CHYLVLD yielded an amyloid nucleation score of -0.186 ± 0.74.

CHYVKPVFTICQVPTFIESI returned an amyloid nucleation score of 1.43 ± 0.51.

As to CISIACSAD, the amyloid nucleation score stood at 0.342 ± 0.73.

Consider CIYWALGRAMRLPSGTGARG, for which the amyloid nucleation score was 0.099 ± 0.95.

CKCWFM: the amyloid nucleation score was found to be 0.307 ± 0.52.

As for CKFIFRKIVVGFCFDQQ, the amyloid nucleation score turned out to be 3.67 ± 0.1.

In the case of CKRNQTTVSVVGWFI, the amyloid nucleation score is -0.227 ± 1.2.

Regarding CKVDRFIRCGVGYLSG, the amyloid nucleation score came out at 0.039 ± 0.28.

The substance CLIESIWKLVVSNGSKYISY had an amyloid nucleation score of -0.181 ± 0.18.

For CLSELGFAVPTSWTICILCT, the amyloid nucleation score came out at 0.656 ± 0.59.

Regarding CLTGGYPNRKLNLTMMWCHW, the amyloid nucleation score entry was “inactive”.

Turning to CLVPAQGCYYGYLLTLMVER, the amyloid nucleation score was -0.264 ± 0.52.

In turn, CLVVYHSRKAW had an amyloid nucleation score of 2.64 ± 0.16.

Turning to CLYARLSFASGYCGLAMRCV, the amyloid nucleation score worked out at 0.477 ± 0.93.

CMAFVFKTCFVFRCNVGKCA gave an amyloid nucleation score of 0.527 ± 0.28.

Substance CMPCSDFGSLWVAMDMNCFR gave an amyloid nucleation score of 4.1 ± 0.085.

As to CMSSAALSRLHM, the amyloid nucleation score is -0.605 ± 1.1.

In the case of CMYTEACNWWGKYNCVGRQL, the amyloid nucleation score was determined as 0.235 ± 0.32.

For the substance CNCAGDLYAVRLYDGGCSSL, the amyloid nucleation score was -0.006 ± 0.46.

In turn, CNCVWRCWV had an amyloid nucleation score of 1.14 ± 0.78.

On to CNELI, for which the amyloid nucleation score entry is “inactive”.

In the case of CNKWRYSFVCIPGISRQ, the amyloid nucleation score came to 2.22 ± 0.091.

Turning to CNYTSPPLSVKDRASLCHTN, the amyloid nucleation score was -0.301 ± 0.93.

CPLTGDRTAVRHMRKSAFAE came in with an amyloid nucleation score of -0.525 ± 0.4.

CPRVKAHVRKNVFFSLVMSL gave an amyloid nucleation score of 0.296 ± 0.44.

In turn, CPRYLATNIFHAGECVNHSR displayed an amyloid nucleation score of -1.08 ± 2.7.

In turn, CPVNDMGVWGKMACWNNRV displayed an amyloid nucleation score of -0.691 ± 0.54.

CQEKRSFPVNMNRDIPCLSS returned an amyloid nucleation score of 0.193 ± 1.5.

Substance CQIFELLSNVRVTLLIYNSG came in with an amyloid nucleation score of 1.41 ± 0.19.

CQLSNTSIACSLYNLHCRSW returned an amyloid nucleation score of 4.42 ± 0.13.

Take CQSGMSDDEGGQGRFVKCMG: the amyloid nucleation score came out at 0.114 ± 0.51.

CRATTP gave an amyloid nucleation score of 0.282 ± 0.49.

As for CRCFGRFLVITSI, the amyloid nucleation score entry was “inactive”.

CRCYNWFRWSLMS showed an amyloid nucleation score of -0.07 ± 0.26.

In the case of CRDVY, the amyloid nucleation score was found to be 1.92 ± 0.51.

Regarding CRIQFSSVRMDDSCAQGRKD, the amyloid nucleation score stood at 0.504 ± 0.67.

For the substance CRLHVNGLVIVCASWKCGA, the amyloid nucleation score was determined as 3.76 ± 0.1.

The substance CRPVGSTVVSVDNGTS registered an amyloid nucleation score of -0.188 ± 0.37.

The substance CRQVFLFLVVPKYYNRMLST had an amyloid nucleation score of -0.251 ± 0.31.

CRRNGGTLMAGE displayed an amyloid nucleation score of 1.21 ± 0.76.

On to CRRPEWCEWQGLQTEE, for which the amyloid nucleation score amounted to 0.266 ± 0.83.

In turn, CRSGYRFLRRRAGLTVMR gave an amyloid nucleation score of -0.413 ± 1.5.

Regarding CRSSVLRSVCINNLSKCSLV, the amyloid nucleation score entry is “inactive”.

CRTCRNQRMKDKSELSWLMS yielded an amyloid nucleation score of -0.589 ± 0.6.

In turn, CRTTHQALRWIHMDYYYSWV had an amyloid nucleation score of -0.327 ± 0.31.

The substance CRVPIRCRGDLLSLRAVRFR returned an amyloid nucleation score of 1.88 ± 0.14.

Substance CSDSNIPLHNHSWGTSVVDN yielded an amyloid nucleation score of 1.31 ± 0.63.

Take CSENT: the amyloid nucleation score is -0.875 ± 0.52.

Turning to CSFYHVFRCSVGFDVFFSTD, the amyloid nucleation score is -0.259 ± 0.41.

CSGCQARIWALDRRRRVEVS came in with an amyloid nucleation score of 0.213 ± 0.69.

Turning to CSGLNVSLSRRQVVVLSV, the amyloid nucleation score is -0.632 ± 0.33.

CSHANETW displayed an amyloid nucleation score of 0.593 ± 0.55.

As for CSKIVYPCSTFTSLFYLFLP, the amyloid nucleation score is -0.614 ± 0.8.

Substance CSLNLNCVS registered an amyloid nucleation score of 3.76 ± 0.13.

On to CSLTKQRCYFEQLMSGPPCL, for which the amyloid nucleation score is -0.329 ± 0.35.

In turn, CSNDMGEQWWEDRYCTGKWD came in with an amyloid nucleation score of -0.204 ± 0.38.

The substance CSPVYIEFRLRQVFVARA showed an amyloid nucleation score of 1.26 ± 0.76.

On to CSVKCKTRCVYRFMESKWF, for which the amyloid nucleation score was -0.021 ± 0.32.

CSYPVECSGSMYVSEKTSIF: the amyloid nucleation score result was “inactive”.

As to CTAQTSCILW, the amyloid nucleation score was determined as 0.2 ± 0.29.

With CTFSSWRESGFWTSLIHGYL, the amyloid nucleation score was -0.218 ± 0.36.

CTLSYSCFLVVLSFYGQSSF had an amyloid nucleation score of 0.366 ± 0.24.

Take CTRFKGFAWTSMLRL: the amyloid nucleation score is 0.21 ± 0.75.

Consider CVCLSVARLDYADIFVWTFM, for which the amyloid nucleation score amounted to 2.28 ± 0.13.

In turn, CVCYRTDRVARTGCNEPSMQ displayed an amyloid nucleation score of 0.177 ± 0.59.

The substance CVDRQFAAVRQVTTIQTWCG yielded an amyloid nucleation score of 0.983 ± 0.26.

Consider CVFRCVLVKWSVNMVLLLWF, for which the amyloid nucleation score was found to be 0.536 ± 0.3.

With CVIDRWGDIYSNHEGNRSLL, the amyloid nucleation score is -0.025 ± 0.32.

Substance CVKERELIFFWYVVRSEYDL displayed an amyloid nucleation score of -0.485 ± 0.47.

For CVLCKQRFTILMQRWLVRK, the amyloid nucleation score worked out at 0.961 ± 0.61.

CVNLFSLLFWTLAIRCLNFR: the amyloid nucleation score was -0.025 ± 0.49.

Substance CVPDGKFRSKRIPGRNFPLL came in with an amyloid nucleation score of 0.278 ± 0.42.

As to CVTAAEM, the amyloid nucleation score amounted to 0.762 ± 0.41.

Take CWCGVTVCV: the amyloid nucleation score is -0.276 ± 0.59.

CWCMFCTASL registered an amyloid nucleation score of 7.637 ± 0.064.

As for CWGLRLLSFVRRLV, the amyloid nucleation score turned out to be 0.749 ± 1.

In turn, CWVCNEKRAFRRPVSNQLRV came in with an amyloid nucleation score of -0.146 ± 0.85.

On to CYCNEKIVTMRAIDIVRFTC, for which the amyloid nucleation score was -0.556 ± 0.23.

Consider CYHSKFAVAYQSRICWPWRD, for which the amyloid nucleation score was 1.26 ± 0.67.

With CYLLQWTSFCQQAFSNEMGW, the amyloid nucleation score worked out at 0.267 ± 0.67.

In turn, CYNNSCDKWGWASM showed an amyloid nucleation score of 1.22 ± 0.53.

Substance CYSRAYEEARSAI came in with an amyloid nucleation score of 1.21 ± 0.76.

Substance CYVKTYKIKSLRR returned an amyloid nucleation score of -0.07 ± 1.4.

As for CYVMLINAEND, the amyloid nucleation score is -0.796 ± 1.4.

As for CYVNLTFPVLVEACTASFTD, the amyloid nucleation score was determined as 6.722 ± 0.055.

The substance DAEFRHDSGYEVHHQKLVFF came in with an amyloid nucleation score of 2.91 ± 0.19.

Substance DAMRGLPFYQYMHHMGNGYW gave an amyloid nucleation score of -0.083 ± 1.4.

Take DANNIRLDDSFELRWCKNVC: the amyloid nucleation score is -1.36 ± 0.91.

DASIIPYMNMFIMLTSLA registered an amyloid nucleation score of -0.889 ± 1.7.

DCGAWGHTLVSWSKYLGKSF: the amyloid nucleation score came out at 3.64 ± 0.092.

The substance DCGDNRLTTEGQKSSSPVAD returned an amyloid nucleation score of 0.378 ± 0.3.

Consider DCTEH, for which the amyloid nucleation score result is “inactive”.

Substance DCVSHAGQRGIMCRSGSLRF registered an amyloid nucleation score of -0.138 ± 0.64.

As to DDGGLSFGSGNSQSSKKIWL, the amyloid nucleation score is 0.853 ± 0.42.

As to DDKSFQ, the amyloid nucleation score turned out to be 0.614 ± 0.37.

Substance DDMVDVPFTMVGMWPYDSY returned an amyloid nucleation score of -0.381 ± 0.3.

In turn, DDQKIRRY registered an amyloid nucleation score of 0.602 ± 0.34.

DDSHVSCDYTLYGWSFGYMC yielded an amyloid nucleation score of 2.37 ± 0.1.

With DDVMSKVPCVTTYSVVLLMR, the amyloid nucleation score stood at 0.83 ± 0.78.

The substance DEGRDLILISLAHRTSRIDP returned an amyloid nucleation score of 1.29 ± 0.26.

As to DETWLSLQVNLLLFYSRMDM, the amyloid nucleation score is -0.153 ± 0.66.

Substance DFAYMSVLWIVVMLRGFLVK yielded an amyloid nucleation score of 0.639 ± 0.45.

Substance DFDNEGLWCS showed an amyloid nucleation score of -0.217 ± 0.42.

For DFFLIFWWDSFSAGVCQMNS, the amyloid nucleation score was 0.356 ± 0.51.

Regarding DFNHYDRSSW, the amyloid nucleation score is 2.45 ± 0.18.

Substance DFSCGRMGFALERSLAMYRA showed an amyloid nucleation score of 0.041 ± 0.53.

For the substance DFYADIASVMSVPILCSLLG, the amyloid nucleation score result was “inactive”.

Substance DFYLT showed an amyloid nucleation score of -0.257 ± 1.4.

DFYLWPGMFSKYLGLNATLS yielded an amyloid nucleation score of -0.604 ± 0.57.

DFYYNALIREVGQ displayed an amyloid nucleation score of -0.825 ± 0.75.

Take DGASMSKRPPRVILKLGIFD: the amyloid nucleation score came to 0.054 ± 0.33.

The substance DGFKAALICAIANY displayed an amyloid nucleation score of 0.397 ± 0.3.

In turn, DGLRCIGCIGNTGDWNS showed an amyloid nucleation score of 6.86 ± 0.085.

In turn, DGSYTWWAFGSIQRCEGLTV had an amyloid nucleation score of 0.177 ± 0.47.

On to DIFRIYMWVHCMDRHSDGTV, for which the amyloid nucleation score came to 2.29 ± 0.27.

For DIIVFSVLFLVTLDGDLWC, the amyloid nucleation score came out at 0.476 ± 0.97.

Turning to DISRMMSISRLFFYNNVLFT, the amyloid nucleation score was -0.524 ± 0.44.

DKNML came in with an amyloid nucleation score of 1.44 ± 0.54.
